Measurements from patent publication US5935824.

Tests used:
[1] = molecular target: control peptide Ala-Leu-Lys-Asp-Ala-Gln-Thr-Asn-Ser-Ser-Ser-Phe
[2] = molecular target: Lys-Lys peptide Pro-Leu-Ser-Arg-Leu-Ser-Val-Ala-Lys-Lys
[3] = molecular target: N-CBZ-Gly-Pro-Leu-Ala-Pro
[4] = molecular target: MBP/IgG fusion protein encoded by pMA2-TH-IgG-9 (E. coli; human)

| cleavage of the fusion protein, time course on SDS-PAGE (% cleaved after 5 minutes) [4] | Substance | rate of digestion at the flow rate of 4 ml/minute (N-CBZ-Phe-Ala) | K^1 min^-1 (first order rate constant, flow digestion at 2 ml/min) (N-CBZ-Ala-Leu) | K^1 min^-1 (first order rate constant, flow digestion at 2 ml/min) (N-CBZ-Gly-Pro) | K^1 min^-1 (first order rate constant, flow digestion at 2 ml/min) (N-CBZ-Glu-Tyr) | K^1 min^-1 (first order rate constant, flow digestion at 2 ml/min) (N-CBZ-Ala-Pro) | K^1 min^-1 (first order rate constant, flow digestion at 2 ml/min) (N-CBZ-Pro-Phe) | removal of the carboxy-terminal phenylalanine, HPLC of the digestion products [1] | first order rate constant of hydrolysis of the Lys-Lys bond, ninhydrin assay of free lysine [2] | kinetic constant of hydrolysis of the remaining Pro-Leu bond, ninhydrin assays of released amino acids [3] |
| --- | --- | --- | --- | --- | --- | --- | --- | --- | --- | --- |
|  | carboxypeptidase Y (from UniProt P00729) (enzyme) | 42 µmol/min | 27.5 min⁻¹ | 0.16 min⁻¹ | 24.2 min⁻¹ | 22.4 min⁻¹ | 1.48 min⁻¹ | 96% | 0.16 min⁻¹ | 18.4 min⁻¹ |
| 75 | thrombin (Sigma) (enzyme) |  |  |  |  |  |  |  |  |  |
